Columns and labels:
Jak2 = Jak2 (UniProt O60674); test: phosphorylation enrichment, bacterial display (enrichment ratio); higher = better substrate or ligand; peptides without Tyr show the background
c-Src = test: as above
MERTK = MERTK (UniProt Q12866); test: as above
EPHB1 = EPHB1 (UniProt P54762); test: as above
Fes = Fes (UniProt P07332); test: as above
EPHB2 = EPHB2 (UniProt P29323); test: as above
c-Abl (mouse) = test: as above
Fer (mouse) = test: as above
FGFR3 = FGFR3 (UniProt P22607); test: as above
AncSZ = test: as above
FGFR1 = FGFR1 (UniProt P11362); test: as above
Fyn = Fyn (UniProt P06241); test: as above
Fyn, sequence (P06241 whole entry, looked up): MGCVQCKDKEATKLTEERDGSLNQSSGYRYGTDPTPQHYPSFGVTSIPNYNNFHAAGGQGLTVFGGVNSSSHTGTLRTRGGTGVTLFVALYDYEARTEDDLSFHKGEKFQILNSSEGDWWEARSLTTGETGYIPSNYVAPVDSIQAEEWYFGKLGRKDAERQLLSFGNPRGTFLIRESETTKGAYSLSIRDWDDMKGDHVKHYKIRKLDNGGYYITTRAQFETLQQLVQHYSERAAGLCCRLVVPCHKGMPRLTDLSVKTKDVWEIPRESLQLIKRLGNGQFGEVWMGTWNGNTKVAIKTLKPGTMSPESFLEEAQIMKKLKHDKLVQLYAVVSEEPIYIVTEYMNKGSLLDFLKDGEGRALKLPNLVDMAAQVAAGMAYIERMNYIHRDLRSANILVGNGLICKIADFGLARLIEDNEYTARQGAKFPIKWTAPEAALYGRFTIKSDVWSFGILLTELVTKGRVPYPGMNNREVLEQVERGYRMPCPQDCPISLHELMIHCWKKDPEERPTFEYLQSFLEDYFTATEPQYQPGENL

Hck = Hck (UniProt P08631); test: as above
Hck, sequence (P08631 whole entry, looked up): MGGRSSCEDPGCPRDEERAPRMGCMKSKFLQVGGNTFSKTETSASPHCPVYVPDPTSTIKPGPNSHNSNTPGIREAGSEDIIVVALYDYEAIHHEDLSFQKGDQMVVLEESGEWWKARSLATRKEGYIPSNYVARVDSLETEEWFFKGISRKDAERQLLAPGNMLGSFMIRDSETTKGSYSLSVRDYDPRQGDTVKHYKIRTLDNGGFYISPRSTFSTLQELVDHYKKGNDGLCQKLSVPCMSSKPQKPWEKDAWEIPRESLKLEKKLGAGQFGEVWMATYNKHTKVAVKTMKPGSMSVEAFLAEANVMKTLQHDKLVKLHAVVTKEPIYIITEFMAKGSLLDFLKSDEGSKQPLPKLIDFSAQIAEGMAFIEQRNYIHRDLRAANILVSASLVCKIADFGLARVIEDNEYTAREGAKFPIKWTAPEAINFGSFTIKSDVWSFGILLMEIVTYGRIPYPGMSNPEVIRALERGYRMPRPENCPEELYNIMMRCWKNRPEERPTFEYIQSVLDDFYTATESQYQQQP

c-Src SH2 = test: SH2 binding enrichment of the phosphorylated peptide, bacterial display (enrichment ratio); higher = better substrate or ligand; peptides without Tyr show the background
SHP2-C SH2 = test: as above
Grb2 SH2 = Grb2 SH2 (UniProt P62993); test: as above
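Throughout, for SH2 binding enrichment of the phosphorylated peptide, bacterial display: peptide library displayed on the E. coli surface as eCPX fusions, selected cells deep-sequenced, score is each peptide's frequency after selection divided by its frequency in the input.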
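Throughout, for phosphorylation enrichment, bacterial display: 11-residue human phosphosite peptides and single-mutation variants displayed on the E. coli surface, counted by deep sequencing, each peptide's frequency after selection divided by its frequency in the unselected input library; frequency after pTyr selection over input frequency; kinase dosed for 20-30% of maximal phosphorylation in three min.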

MERTK, sequence (Q12866 whole entry, looked up): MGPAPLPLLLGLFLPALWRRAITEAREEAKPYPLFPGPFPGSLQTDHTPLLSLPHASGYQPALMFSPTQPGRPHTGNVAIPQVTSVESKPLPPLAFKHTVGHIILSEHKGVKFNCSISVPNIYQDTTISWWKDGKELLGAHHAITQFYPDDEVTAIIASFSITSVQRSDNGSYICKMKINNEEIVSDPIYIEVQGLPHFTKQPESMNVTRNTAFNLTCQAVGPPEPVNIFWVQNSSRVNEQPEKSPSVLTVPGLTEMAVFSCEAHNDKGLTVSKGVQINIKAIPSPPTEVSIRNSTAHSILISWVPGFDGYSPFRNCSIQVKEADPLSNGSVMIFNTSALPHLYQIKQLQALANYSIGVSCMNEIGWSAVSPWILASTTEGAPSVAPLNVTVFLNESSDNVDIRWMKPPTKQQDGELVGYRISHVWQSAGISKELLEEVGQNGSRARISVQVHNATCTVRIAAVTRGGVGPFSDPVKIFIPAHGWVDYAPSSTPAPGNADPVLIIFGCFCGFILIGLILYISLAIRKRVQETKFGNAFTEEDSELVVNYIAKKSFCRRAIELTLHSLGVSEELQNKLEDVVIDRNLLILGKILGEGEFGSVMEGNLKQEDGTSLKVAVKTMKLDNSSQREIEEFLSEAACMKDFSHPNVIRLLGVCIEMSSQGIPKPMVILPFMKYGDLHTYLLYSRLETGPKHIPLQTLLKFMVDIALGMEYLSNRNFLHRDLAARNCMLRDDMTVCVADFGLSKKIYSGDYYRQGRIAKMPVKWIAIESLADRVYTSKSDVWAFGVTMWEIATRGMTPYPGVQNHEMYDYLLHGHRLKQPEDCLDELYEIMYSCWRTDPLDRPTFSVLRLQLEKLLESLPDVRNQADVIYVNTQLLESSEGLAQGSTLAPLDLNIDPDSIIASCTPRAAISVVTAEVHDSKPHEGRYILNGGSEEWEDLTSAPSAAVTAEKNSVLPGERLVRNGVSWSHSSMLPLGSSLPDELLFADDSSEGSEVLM
EPHB1, sequence (P54762 whole entry, looked up): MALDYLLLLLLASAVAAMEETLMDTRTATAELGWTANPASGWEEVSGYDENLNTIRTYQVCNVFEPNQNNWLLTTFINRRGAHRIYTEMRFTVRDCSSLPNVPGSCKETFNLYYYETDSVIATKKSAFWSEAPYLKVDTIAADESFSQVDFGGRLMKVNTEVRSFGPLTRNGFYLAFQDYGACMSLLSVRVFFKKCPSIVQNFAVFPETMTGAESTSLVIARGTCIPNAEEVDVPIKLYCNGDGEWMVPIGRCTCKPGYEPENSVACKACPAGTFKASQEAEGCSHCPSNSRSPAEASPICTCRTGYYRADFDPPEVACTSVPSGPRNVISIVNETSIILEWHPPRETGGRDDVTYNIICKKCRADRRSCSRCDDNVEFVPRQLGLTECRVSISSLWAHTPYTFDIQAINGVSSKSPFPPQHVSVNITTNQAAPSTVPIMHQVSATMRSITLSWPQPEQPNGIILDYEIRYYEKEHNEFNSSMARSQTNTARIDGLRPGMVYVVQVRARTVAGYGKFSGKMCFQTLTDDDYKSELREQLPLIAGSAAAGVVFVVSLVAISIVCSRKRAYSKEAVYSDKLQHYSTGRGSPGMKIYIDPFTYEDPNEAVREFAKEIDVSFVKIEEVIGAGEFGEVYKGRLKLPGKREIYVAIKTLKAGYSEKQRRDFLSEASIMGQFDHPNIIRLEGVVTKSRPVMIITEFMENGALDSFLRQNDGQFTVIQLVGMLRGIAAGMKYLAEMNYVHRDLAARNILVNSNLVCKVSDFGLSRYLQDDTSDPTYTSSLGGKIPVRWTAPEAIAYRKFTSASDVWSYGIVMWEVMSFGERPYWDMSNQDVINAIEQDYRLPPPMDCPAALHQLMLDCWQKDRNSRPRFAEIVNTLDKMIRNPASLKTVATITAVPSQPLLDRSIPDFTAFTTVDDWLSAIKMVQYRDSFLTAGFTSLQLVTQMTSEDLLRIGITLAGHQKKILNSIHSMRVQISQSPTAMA
Fes, sequence (P07332 whole entry, looked up): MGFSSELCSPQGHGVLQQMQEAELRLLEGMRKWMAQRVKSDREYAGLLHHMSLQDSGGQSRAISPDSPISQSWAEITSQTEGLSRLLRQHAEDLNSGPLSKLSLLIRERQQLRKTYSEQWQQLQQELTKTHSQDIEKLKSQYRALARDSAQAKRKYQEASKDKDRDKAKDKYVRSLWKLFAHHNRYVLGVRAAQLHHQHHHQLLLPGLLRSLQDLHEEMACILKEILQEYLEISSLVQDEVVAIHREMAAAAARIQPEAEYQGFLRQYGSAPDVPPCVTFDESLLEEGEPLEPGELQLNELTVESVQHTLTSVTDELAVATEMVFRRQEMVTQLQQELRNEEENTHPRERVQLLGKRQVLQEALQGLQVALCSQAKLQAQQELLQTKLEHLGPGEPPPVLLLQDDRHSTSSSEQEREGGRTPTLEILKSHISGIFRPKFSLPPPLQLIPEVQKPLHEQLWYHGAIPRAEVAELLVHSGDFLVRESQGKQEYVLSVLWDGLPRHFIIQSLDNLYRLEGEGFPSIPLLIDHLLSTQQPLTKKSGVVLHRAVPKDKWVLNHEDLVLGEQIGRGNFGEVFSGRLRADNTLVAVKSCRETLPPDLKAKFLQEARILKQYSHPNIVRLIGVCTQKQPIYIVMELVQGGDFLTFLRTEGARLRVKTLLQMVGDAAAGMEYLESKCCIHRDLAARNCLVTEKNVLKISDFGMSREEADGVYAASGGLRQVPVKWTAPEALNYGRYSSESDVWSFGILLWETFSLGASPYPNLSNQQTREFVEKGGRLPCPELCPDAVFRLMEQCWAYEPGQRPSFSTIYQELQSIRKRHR
EPHB2, sequence (P29323 whole entry, looked up): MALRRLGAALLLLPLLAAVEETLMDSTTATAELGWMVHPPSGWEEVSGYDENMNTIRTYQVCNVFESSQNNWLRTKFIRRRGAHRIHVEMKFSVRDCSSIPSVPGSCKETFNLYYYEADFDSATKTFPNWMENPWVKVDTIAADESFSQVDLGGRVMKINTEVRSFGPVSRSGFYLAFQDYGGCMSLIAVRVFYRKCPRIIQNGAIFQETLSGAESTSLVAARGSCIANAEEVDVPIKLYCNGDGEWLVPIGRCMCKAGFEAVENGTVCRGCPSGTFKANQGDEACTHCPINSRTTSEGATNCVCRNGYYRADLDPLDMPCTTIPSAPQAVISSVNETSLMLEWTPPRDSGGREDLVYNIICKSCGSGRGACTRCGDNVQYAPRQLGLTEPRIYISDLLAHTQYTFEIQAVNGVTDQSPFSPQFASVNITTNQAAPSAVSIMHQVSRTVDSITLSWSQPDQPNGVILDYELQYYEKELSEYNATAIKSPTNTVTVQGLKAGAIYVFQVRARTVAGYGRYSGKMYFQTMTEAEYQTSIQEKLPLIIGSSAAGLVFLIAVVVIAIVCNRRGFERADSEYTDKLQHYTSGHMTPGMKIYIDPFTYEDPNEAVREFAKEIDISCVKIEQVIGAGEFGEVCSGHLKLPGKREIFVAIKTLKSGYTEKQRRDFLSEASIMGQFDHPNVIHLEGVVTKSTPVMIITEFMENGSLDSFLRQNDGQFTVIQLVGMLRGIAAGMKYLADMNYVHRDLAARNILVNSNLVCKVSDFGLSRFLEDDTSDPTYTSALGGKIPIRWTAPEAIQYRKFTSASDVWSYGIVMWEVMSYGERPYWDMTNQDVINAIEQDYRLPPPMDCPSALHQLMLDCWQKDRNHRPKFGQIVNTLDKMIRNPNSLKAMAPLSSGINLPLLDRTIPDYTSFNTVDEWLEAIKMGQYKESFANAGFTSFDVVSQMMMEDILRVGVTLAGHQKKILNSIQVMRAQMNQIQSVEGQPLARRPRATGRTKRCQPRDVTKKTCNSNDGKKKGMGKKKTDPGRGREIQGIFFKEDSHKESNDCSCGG

| Sequence | phosphorylation enrichment (Jak2) | phosphorylation enrichment (c-Src) | phosphorylation enrichment (MERTK) | phosphorylation enrichment (EPHB1) | phosphorylation enrichment (Fes) | phosphorylation enrichment (EPHB2) | phosphorylation enrichment (c-Abl (mouse)) | phosphorylation enrichment (Fer (mouse)) | phosphorylation enrichment (FGFR3) | phosphorylation enrichment (AncSZ) | phosphorylation enrichment (FGFR1) | phosphorylation enrichment (Fyn) | phosphorylation enrichment (Hck) | SH2 binding enrichment (c-Src SH2) | SH2 binding enrichment (SHP2-C SH2) | SH2 binding enrichment (Grb2 SH2) |
| --- | --- | --- | --- | --- | --- | --- | --- | --- | --- | --- | --- | --- | --- | --- | --- | --- |
| LCHELYNTIRD [PBRM1_Y54_V49L] | 2.44 | 3.39 | 0.796 | 0.675 | 1.03 | 0.785 | 0.929 | 0.869 | 0.905 | 1.21 | 0.973 | 1 | 6.12 | 4 | 1.04 | 1.21 |
| KIEGVYARDET [RPL35A_Y34] | 0.681 | 0.56 | 0.386 | 0.515 | 0.878 | 0.612 | 0.633 | 0.387 | 0.55 | 0.784 | 0.437 | 0.555 | 0.586 | 0.542 | 0.705 | 0.671 |
| VHVEVYDRPSP | 1.01 | 0.597 | 0.531 | 0.791 | 1.02 | 0.668 | 1.33 | 0.802 | 0.761 | 1.39 | 0.438 | 0.855 | 1.95 | 0.585 | 0.777 | 0.803 |
| GDEEDYEEIPG [EGFR_opt_E_2015] | 1.36 | 0.598 | 0.498 | 0.893 | 1.38 | 0.59 | 0.898 | 0.645 | 0.823 | 1.36 | 0.62 | 0.596 | 0.527 | 0.779 | 0.624 | 0.993 |
| SQQTYYRVSNM [ABCD1_Y181] | 6.19 | 3 | 3.23 | 1.93 | 0.678 | 1.12 | 0.795 | 0.401 | 5.82 | 0.703 | 7.77 | 1.47 | 3.23 | 0.636 | 0.789 | 0.853 |
| EAESWYQTKFE [KRT75_Y342_YF] | 0.906 | 0.583 | 0.436 | 0.721 | 1.18 | 0.568 | 0.684 | 0.624 | 0.808 | 1.06 | 0.49 | 0.662 | 0.735 | 0.699 | 0.434 | 0.794 |
| FVHDNYVIWRT [CPS1_Y1450_R1453W] | 1.11 | 0.721 | 1.45 | 6.57 | 1.16 | 7.37 | 1.14 | 1.26 | 1.8 | 1.28 | 2.79 | 0.577 | 1.26 | 0.827 | 0.847 | 1.11 |
| PGGKIYISPLK [RB1_Y805_N803K] | 0.72 | 0.422 | 0.461 | 0.361 | 0.794 | 0.763 | 1.17 | 0.441 | 0.583 | 0.598 | 0.45 | 0.513 | 0.456 | 0.776 | 1.12 | 0.933 |
| ALTDNYMFVVI [HAGH_Y61_L64V_YF] | 1.3 | 0.516 | 1.52 | 11.5 | 1.61 | 8.6 | 0.99 | 5.63 | 6.54 | 1.68 | 8.71 | 0.653 | 0.574 | 0.388 | 0.568 | 0.679 |
| KSSDVYVSFDC [SORL1_Y136_Y141C_YF] | 0.889 | 3.34 | 0.803 | 1.41 | 1.18 | 0.802 | 0.786 | 0.733 | 1.61 | 1.44 | 1.92 | 5.22 | 2.16 | 0.79 | 0.782 | 1.15 |
| GFVEDYRPPFY [ACVRL1_Y421_I417F] | 0.969 | 0.522 | 0.52 | 0.495 | 1.13 | 0.491 | 0.868 | 0.541 | 0.754 | 1.33 | 0.56 | 0.517 | 0.496 | 0.626 | 1.03 | 0.96 |
| KVKGEYDMTVP [AHNAK_Y964] | 0.543 | 0.414 | 0.463 | 0.491 | 0.744 | 0.36 | 0.372 | 0.637 | 0.607 | 0.669 | 0.469 | 0.434 | 0.443 | 0.499 | 0.692 | 0.756 |
| NFHRGYHLQVL [CD200R1L_Y138] | 0.54 | 0.353 | 0.351 | 0.483 | 0.835 | 0.475 | 0.787 | 0.478 | 0.606 | 0.755 | 0.453 | 0.5 | 0.375 | 0.54 | 0.827 | 0.963 |
| AGQEDCDRLRP [CDC42_Y64_Y64C] | 0.682 | 0.427 | 0.364 | 0.552 | 0.882 | 0.444 | 0.609 | 0.439 | 0.586 | 0.784 | 0.476 | 0.436 | 0.424 | 0.548 | 0.945 | 1.07 |
| TTKAKYKTPIY [PLD2_Y573_T577I] | 0.587 | 0.541 | 0.574 | 0.542 | 0.928 | 0.46 | 0.695 | 0.459 | 0.596 | 0.823 | 0.46 | 0.771 | 0.789 | 0.793 | 0.775 | 0.908 |
| IPGMEYLVSII [TNC_Y1775_V1773M] | 1.11 | 0.583 | 0.565 | 0.65 | 1.41 | 0.855 | 0.825 | 0.722 | 0.889 | 1.44 | 0.72 | 0.612 | 0.522 | 0.641 | 1.15 | 0.991 |
